Data from article PMC6353898, “A Rational Approach for Creating Peptides Mimicking Antibody Binding” (Scientific Reports, 2019).

What follows are binders tested against EGFR recombinant human protein (human) (UniProt P00533) (assay: SPR; EGFR (20 µg/mL) or BSA (20 µg/mL) covalently attached (EDC/NHS) to a carboxymethylated dextran chip; peptides injected as analytes at 15 µL/min; 25 °C; PBS with 0.01% Tween 20, pH 7.4; global fit, 1:1 Langmuir model with mass transport; KD from koff/kon).

First: WSGENGPGTFYDYEA (designed binder) [Pep22]
Second: WSGENGPGFYDYEA (designed binder) [Pep11]
The Kd of the first is 2.4-fold higher: 595 nM for the first, 252 nM for the second. The second binds more tightly here.

With WSGENGPGYFDYEA (designed binder) [Pep6] the Kd was 4800 nM.
